In patent US20260209363A1 (Chugai, published 2026) one finds Kd, koff and kon data, which are given here for three molecules.

The target in assay [1] is T1, human soluble IL-6R (human, UniProt P08887 20-357, limits assumed).
T1 construct: Soluble form; also called sIL6R; Human IL-6R
T1 sequence (looked up): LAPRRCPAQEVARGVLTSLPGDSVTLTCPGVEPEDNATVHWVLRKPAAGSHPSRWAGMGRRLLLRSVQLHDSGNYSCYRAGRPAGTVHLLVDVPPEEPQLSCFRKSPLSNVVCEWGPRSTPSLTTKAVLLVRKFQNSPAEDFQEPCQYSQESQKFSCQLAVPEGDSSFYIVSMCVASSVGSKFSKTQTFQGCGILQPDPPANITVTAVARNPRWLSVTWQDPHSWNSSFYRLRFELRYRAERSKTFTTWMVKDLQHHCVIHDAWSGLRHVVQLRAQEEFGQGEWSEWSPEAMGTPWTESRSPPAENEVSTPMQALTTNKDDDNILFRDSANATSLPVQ
As to the kind of experiment: SPR (Biacore T200), antibody captured on Protein G, human IL-6R as analyte, 37 degrees C, no albumin. As for the experimental part:
Binding activities of the produced albumin switch molecules against human IL-6R were evaluated using Biacore T200 (Cytiva). As the running buffer, 50 mM Na Phosphate (pH 7.4), 150 mM NaCl, 0.05% Tween20 was used, and the evaluation was performed at 37 degrees C. First, Protein G (CALBIOCHEM) was used as a ligand-capturing molecule. Protein G (CALBIOCHEM) was solid-phased on a Series S Sensor Chip CM4 (Cytiva) using an Amine Coupling Kit (Cytiva). Antibody solution prepared using the running buffer was allowed to interact with this CM4 sensor chip to capture approximately 200 RU of the antibody. Human IL-6R used in the present measurement was prepared by an approach described in WO2018097307 (Example 3-2). Human IL-6R was diluted to 0, 100, and 400 nM with the running buffer, and allowed to bind to the captured antibody. The chip was regenerated using 3 M MgCl₂, and measurements were performed by repeatedly capturing the antibodies. Dissociation constant (KD) of each antibody for human IL-6R was calculated using Biacore T200 Evaluation Software 2.0. Specifically, the association rate constant ka (L/mol/s) and the dissociation rate constant kd (1/s) were calculated by global fitting of the sensorgrams obtained by measurement with the 1:1 Langmuir binding model, and the dissociation constant KD (mol/L) was calculated from these values.

For assay [2], the target named is T1, human soluble IL-6R. Description: in vivo KD in mouse plasma (albumin present), from total antibody, free and bound sIL6R 5 min after sIL6R; antibody 1 mg/kg IV. On the procedure:
Next, free sIL6R in plasma was measured. The concentration of free sIL6R in plasma was measured on a fully automated ELISA system (Gyrolab xP workstation). First, sIL6R prepared at 23.4, 46.9, 93.8, 188, 375, 750, and 1500 ng/mL using a Protein-Free (PBS) Blocking Buffer (Thermo Scientific) was used as solutions for preparing the calibration curve. Mouse plasma samples were used in the measurements without diluting them. A solution of biotin-labeled H54 diluted to 10 micro g/mL using a Protein-Free (PBS) Blocking Buffer was used as a solution of the sIL6R-capturing molecule. Alexa Fluor (registered trademark) 647-labeled anti-human IL-6R antibody (R&D Systems) diluted to 1 micro g/mL using a Protein-Free (PBS) Blocking Buffer was used as a solution of the human IL-6R-detection molecule. PBS (pH 7.4) containing 0.05% TWEEN was used as a washing solution. The calibration curve solutions, mouse plasma samples, sIL6R-capturing molecule solution, sIL6R-detection molecule solution, and the washing solution were placed onto a PCR plate, and then the PCR plate was sealed with a plate sealer. After the PCR plate and the Bioaffy 200 disc were placed in the Gyrolab xP workstation, measurements were taken. Using the data processed by the Gyros Evaluater 3.6.2.30 software and the calibration curve concentrations, the concentration of free sIL6R in plasma was calculated by logistic regression using the XLfit 5.5.0.5 software.
Additionally, bound sIL6R in plasma was measured. The concentration of bound sIL6R in plasma was measured on an electrospray ionization mass spectrometer connected to a high-performance liquid chromatography (LC/ESI-MS/MS). First, H54//IC17 and sIL6R were mixed, and solutions for preparing the calibration curve of bound sIL6R were prepared at theoretical plasma concentrations of 0.0468, 0.467, 4.60, and 20.1 nmol/mL. The solutions for preparing the calibration curve and 1 or 2 micro L of a plasma sample were added to 75 or 150 micro g of magnetic beads (Magnosphere MS300/Carboxyl, JSR) to which anti-delta GK antibodies were solid-phased, and this was shaken at 25 degrees C. for one hour.

The target of a further assay is T2, Mouse MOG (R&D system) (mouse, UniProt Q61885 29-156, limits assumed).
T2 construct: also called mouse soluble MOG; soluble MOG
T2 sequence (looked up): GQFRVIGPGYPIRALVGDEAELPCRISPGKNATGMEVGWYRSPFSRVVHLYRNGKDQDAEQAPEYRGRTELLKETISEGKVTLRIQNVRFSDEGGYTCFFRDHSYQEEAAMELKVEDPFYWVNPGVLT
As to the kind of experiment: SPR (Biacore T200), antibody captured by anti-human Fc antibody, mouse MOG as analyte, 25 degrees C, no albumin. As for the experimental part:
Binding activities of the antibodies produced in Example 10 against mouse MOG were assessed using Biacore T200 (Cytiva).
As the running buffer, 50 mM Na Phosphate (pH 7.4), 150 mM NaCl, 0.05% Tween 20, and 0.005% NaN₃ was used, and the assessment was performed at 25 degrees C. First, anti-human Fc antibody (Cytiva) was used as a ligand-capturing molecule. Anti-human Fc antibody (Cytiva) was solid-phased on a Series S Sensor Chip CM4 (Cytiva) using an Amine Coupling Kit (Cytiva). Antibody solutions prepared using the running buffer was allowed to interact with this CM4 sensor chip to capture approximately 480 RU of the antibody. Mouse MOG (R&D system) was diluted to 0, 10, 40, 160, and 640 nM with the running buffer, and then bound to the captured antibody. The chip was regenerated using 3 M MgCl₂, and measurements were performed by repeatedly capturing antibodies. Dissociation constant (KD) of the respective antibodies for mouse MOG was calculated using Biacore T200 Evaluation Software 2.0. Specifically, the association rate constant ka (L/mol/s) and the dissociation rate constant kd (1/s) were calculated by global fitting of the sensorgrams obtained by measurement with the 1:1 Langmuir binding model, and the dissociation constant KD (mol/L) was calculated from these values.
For orientation: In SPR one partner is held on a chip, and binding of the other changes the refractive index at the surface.

Another assay deals with T3, mouse albumin (mouse, UniProt P07724 25-608).
T3 construct: also called recombinant mouse Albumin; mouse serum albumin
Description: SPR (Biacore T200), antibody captured by anti-human Fc antibody, mouse albumin as analyte, 25 degrees C. As for the experimental part:
Binding activities of the produced antibodies against mouse albumin were evaluated using Biacore T200 (Cytiva).
As the running buffer, 50 mM Na Phosphate (pH 7.4), 150 mM NaCl, 0.05% Tween20 was used, and the evaluation was performed at 25 degrees C. First, anti-human Fc antibody (Cytiva) was used as a ligand-capturing molecule. Anti-human Fc antibody (Cytiva) was solid-phased on a Series S Sensor Chip CM4 (Cytiva) using an Amine Coupling Kit (Cytiva). Antibody solution prepared using the running buffer was allowed to interact with this CM4 sensor chip to capture approximately 120 RU of the antibody. Mouse albumin (Bioscience) was diluted to 0 and 300 nM with the running buffer and allowed to bind to the captured antibody. The chip was regenerated using 3 M MgCl₂, and measurements were performed by repeatedly capturing the antibodies. Dissociation constant (KD) of each antibody for mouse albumin was calculated using Biacore T200 Evaluation Software 2.0. Specifically, the association rate constant ka (L/mol/s) and the dissociation rate constant kd (1/s) were calculated by global fitting of the sensorgrams obtained by measurement with the 1:1 Langmuir binding model, and the dissociation constant KD (mol/L) was calculated from these values.

B1: H54//IC17 (bispecific antibody, human IgG1, kappa)
heavy 1: QVQLQESGPGLVKPSETLSLTCAVSGYSISDDQAWSWVRQPPGEGLEWIGYISYSGITNYNPSLKGRVTISRDTSKNQFSLKLSSVTAADTAAYYCARSLARTTAMDYWGEGTLVTVSSASTKGPSVFPLAPSSKSTSGGTAALGCLVEDYFPEPVTVSWNSGALTSGVHTFPAVLQSSGLYSLSSVVTVPSSSLGTQTYICNVNHKPSNTKVDERVEPKSCDKTHTCPPCPAPELRRGPSVFLFPPKPKDTLMISRTPEVTCVVVDVSHEDPEVKFNWYVDGVEVHNAKTKPREEQYNSTYRVVSVLTVLHQDWLNGKEYKCKVSNKALPAPIEKTISKAKGQPREPQVCTLPPSREEMTKNQVSLSCAVKGFYPSDIAVEWESNGQPENNYKTTPPVLDSDGSFFLVSKLTVDKSRWQQGNVFSCSVMHEALHNHYTQKSLSLSP
light 1: DIQMTQSPSSLSASVGDSVTITCQASQDISSYLNWYQQKPGKAPELLIYYGSELHSGVPSRFSGSGSGTDFTFTISSLEAEDAATYYCQQGNSLPYTFGQGTKVEIERTVAAPSVFIFPPSDRKLKSGTASVVCLLNNFYPREAKVQWKVDNALQSGNSQESVTEQDSKDSTYSLSSTLTLSKADYEKHKVYACEVTHQGLSSPVTKSFNRGEC
heavy 2: not shown
light 2: QVQLQQSGPQLVRPGASVKISCKASGYSFTSYWMHWVNQRPGQGLEWIGMIDPSYSETRLNQKFKDKATLTVDKSSSTAYMQLSSPTSEDSAVYYCALYGNYFDYWGQGTTLTVSSASVAAPSVFIFPPSDEQLKSGTASVVCLLNNFYPREAKVQWKVDNALQSGNSQESVTEQDSKDSTYSLSSTLTLSKADYEKHKVYACEVTHQGLSSPVTKSFNRGEC
notes: Heavy chain constant regions lack the C-terminal glycine and lysine; also called anti-human IL-6R/KLH bispecific antibody
Usually Kd stands for the constant that tells how readily two partners part at equilibrium. A lower Kd goes with tighter binding. Broadly, the koff is a measure of how fast the partners let go of each other. Higher therefore signals a short-lived complex. What is called kon is the rate constant with which the complex forms. A higher kon goes with faster complex formation. Regarding B1, in the assay with human soluble IL-6R [1], binding was characterised by a dissociation constant (Kd) of 3.41 nM, the koff is 0.00141 s⁻¹ and the kon is 412000 M⁻¹ s⁻¹. The molecule further yielded a Kd in the assay with human soluble IL-6R [2] of 1.3 nM.

B2: MOG//IC17 (bispecific antibody, human IgG1, kappa)
heavy 1: RVTLRESGPTLVKPTQTLTLTCTFSGFSLSTSGVGVGWIRQPPGKALEWLALIFWDDDSHYSPSLKSRLTITKDTSKNQVVLTMTNMDPVDTATYYCARYYFGSGSYFPSYWYFDLWGRGTLVTVSSASTKGPSVFPLAPSSKSTSGGTAALGCLVEDYFPEPVTVSWNSGALTSGVHTFPAVLQSSGLYSLSSVVTVPSSSLGTQTYICNVNHKPSNTKVDERVEPKSCDKTHTCPPCPAPELRRGPSVFLFPPKPKDTLMISRTPEVTCVVVDVSHEDPEVKFNWYVDGVEVHNAKTKPREEQYNSTYRVVSVLTVLHQDWLNGKEYKCKVSNKALPAPIEKTISKAKGQPREPQVCTLPPSREEMTKNQVSLSCAVKGFYPSDIAVEWESNGQPENNYKTTPPVLDSDGSFFLVSKLTVDKSRWQQGNVFSCSVMHEALHNHYTQKSLSLSP
light 1: not shown
heavy 2: not shown
light 2: QVQLQQSGPQLVRPGASVKISCKASGYSFTSYWMHWVNQRPGQGLEWIGMIDPSYSETRLNQKFKDKATLTVDKSSSTAYMQLSSPTSEDSAVYYCALYGNYFDYWGQGTTLTVSSASVAAPSVFIFPPSDEQLKSGTASVVCLLNNFYPREAKVQWKVDNALQSGNSQESVTEQDSKDSTYSLSSTLTLSKADYEKHKVYACEVTHQGLSSPVTKSFNRGEC
notes: also called MOG307//IC17; IC17//MOG307
Regarding B2, in the assay with Mouse MOG (R&D system), the Kd is 0.452 nM, the koff came out at 6.99e-05 s⁻¹ and the kon turned out to be 155000 M⁻¹ s⁻¹.

B3: ABD094(H)-H54//IC17 (bispecific antibody, human IgG1, kappa)
heavy 1: LAEAKEAANAELDSYGVSDFYKRLIDKAKTVEGVEALKDAILAALPQVQLQESGPGLVKPSETLSLTCAVSGYSISDDQAWSWVRQPPGEGLEWIGYISYSGITNYNPSLKGRVTISRDTSKNQFSLKLSSVTAADTAAYYCARSLARTTAMDYWGEGTLVTVSSASTKGPSVFPLAPSSKSTSGGTAALGCLVEDYFPEPVTVSWNSGALTSGVHTFPAVLQSSGLYSLSSVVTVPSSSLGTQTYICNVNHKPSNTKVDERVEPKSCDKTHTCPPCPAPELRRGPSVFLFPPKPKDTLMISRTPEVTCVVVDVSHEDPEVKFNWYVDGVEVHNAKTKPREEQYNSTYRVVSVLTVLHQDWLNGKEYKCKVSNKALPAPIEKTISKAKGQPREPQVCTLPPSREEMTKNQVSLSCAVKGFYPSDIAVEWESNGQPENNYKTTPPVLDSDGSFFLVSKLTVDKSRWQQGNVFSCSVMHEALHNHYTQKSLSLSP
light 1: DIQMTQSPSSLSASVGDSVTITCQASQDISSYLNWYQQKPGKAPELLIYYGSELHSGVPSRFSGSGSGTDFTFTISSLEAEDAATYYCQQGNSLPYTFGQGTKVEIERTVAAPSVFIFPPSDRKLKSGTASVVCLLNNFYPREAKVQWKVDNALQSGNSQESVTEQDSKDSTYSLSSTLTLSKADYEKHKVYACEVTHQGLSSPVTKSFNRGEC
heavy 2: not shown
light 2: QVQLQQSGPQLVRPGASVKISCKASGYSFTSYWMHWVNQRPGQGLEWIGMIDPSYSETRLNQKFKDKATLTVDKSSSTAYMQLSSPTSEDSAVYYCALYGNYFDYWGQGTTLTVSSASVAAPSVFIFPPSDEQLKSGTASVVCLLNNFYPREAKVQWKVDNALQSGNSQESVTEQDSKDSTYSLSSTLTLSKADYEKHKVYACEVTHQGLSSPVTKSFNRGEC
In the assay with human soluble IL-6R [1], B3 registered a Kd of 5.21 nM, a koff of 0.00133 s⁻¹ and a kon of 255000 M⁻¹ s⁻¹. For the same molecule, in the assay with mouse albumin, the Kd came to 14.3 nM, the koff was found to be 0.00103 s⁻¹ and the kon came out at 71800 M⁻¹ s⁻¹. In addition, binding with human soluble IL-6R [2] was characterised by a dissociation constant (Kd) of 3.6 nM.
